B1: NECAB1 (parent)
chain: NLDTEELCEYFSQHLGEYENVLAA

Variants of: B1
Test: protein stability index of a GFP-peptide fusion (GPS, HEK-293T) (PSI 1-6); higher = more stable
Conditions: c terminus: a fixed tail appended
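Also: lentivirally expressed fusions sorted by FACS into six bins by GFP to DsRed ratio, PSI derived from sequencing read proportions per bin multiplied by bin number.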

Row | Variant | protein stability index
1 | NLDTEELCPYFSQHLGEYENVLAA [E9P] | 3.97
2 | NLDTEELCGYFSQHLGEYENVLAA [E9G] | 2.97
3 | NLDTSELCEYFSQHLGEYENVLAA [E5S] | 1.93
4 | NLDTMELCEYFSQHLGEYENVLAA [E5M] | 1.63
5 | NLDTAELCEYFSQHLGEYENVLAA [E5A] | 1.56
6 | NLDTDELCEYFSQHLGEYENVLAA [E5D] | 3.04
7 | NLDTRELCEYFSQHLGEYENVLAA [E5R] | 2.13
8 | NLDTPELCEYFSQHLGEYENVLAA [E5P] | 3.13
9 | NLDTCELCEYFSQHLGEYENVLAA [E5C] | 1.92
10 | NLDTIELCEYFSQHLGEYENVLAA [E5I] | 1.99
11 | NLDTVELCEYFSQHLGEYENVLAA [E5V] | 2.1
12 | NLDTEELCEYFSIHLGEYENVLAA [Q13I] | 2.19
13 | NLDTEELCEYFSRHLGEYENVLAA [Q13R] | 3.25
14 | NLDTEELCEYFSWHLGEYENVLAA [Q13W] | 2.1
15 | NLDTEELCEYFSYHLGEYENVLAA [Q13Y] | 2.2
16 | NLDTEELCEYFSHHLGEYENVLAA [Q13H] | 2.32
17 | NLDTEELCEYFSLHLGEYENVLAA [Q13L] | 2.08
18 | NLDTEELCEYFSEHLGEYENVLAA [Q13E] | 2.83
19 | NLDTEELCEYFSQHLGEEENVLAA [Y18E] | 5.13
20 | NLDTEELCEYFSQHLGEDENVLAA [Y18D] | 5.13
21 | NLDTEELCEYFSQHLGEIENVLAA [Y18I] | 2.07
22 | NLDTEELCEYFSQHLGETENVLAA [Y18T] | 4.37
23 | NLDTEELCEYFSQHLGERENVLAA [Y18R] | 4.21
24 | NLDTEELCEYFSQHLGESENVLAA [Y18S] | 4.56

Row | Variant | protein stability index
25 | NLDTEELCEYFSQHLGEGENVLAA [Y18G] | 4.46
26 | NLDTEELCEYFSQHLGEWENVLAA [Y18W] | 1.8
27 | NLDTEELCEYFSQHLGEHENVLAA [Y18H] | 4.47
28 | NLDTEELCEYFSQHLGEYEQVLAA [N20Q] | 2.14
29 | NLDTEELCEYFSQHLGEYEGVLAA [N20G] | 3.22
30 | NLDTEELCEYFSQHLGEYEIVLAA [N20I] | 1.59
31 | NLDTEELCEYFSQHLGEYEEVLAA [N20E] | 2.74
32 | NLDTEELCEYFSQHLGEYEMVLAA [N20M] | 1.93
33 | NLDTEELCEYFSQHLGEYEYVLAA [N20Y] | 3.07
34 | NLDTEELCEYFSQHLGEYELVLAA [N20L] | 1.23
35 | NLDTEELCEYFSQHLGEYEPVLAA [N20P] | 2.32
36 | NLDTEELCEYFSQHLGEYEAVLAA [N20A] | 2.03
37 | NLRTEELCEYFSQHLGEYENVLAA [D3R] | 1.59
38 | NLETEELCEYFSQHLGEYENVLAA [D3E] | 3.24
39 | NLCTEELCEYFSQHLGEYENVLAA [D3C] | 2.12
40 | NLTTEELCEYFSQHLGEYENVLAA [D3T] | 2.57
41 | NLITEELCEYFSQHLGEYENVLAA [D3I] | 1.41
42 | NLDTEELCEYFSQHLGEYENVLAR [A24R] | 1.82
43 | NLDTEELCEYFSQHLGEYENVLAV [A24V] | 2.8
44 | NLDTEELCEYFSQHLGEYENVLAI [A24I] | 2.26
45 | NLDTEELCEYFSQHLGEYENVLAD [A24D] | 3.98
46 | NLDTEELCEYFSQHLGEYENVLAQ [A24Q] | 3.12
47 | NLDTEELCEYFSQHLGEYENVLAS [A24S] | 3.21
48 | NLDTEELCEYFSQHLGEYENVLAT [A24T] | 2.99

Row | Variant | protein stability index
49 | NLDTEELCEVFSQHLGEYENVLAA [Y10V] | 4.24
50 | NLDTEELCEDFSQHLGEYENVLAA [Y10D] | 4.99
51 | NLDTEELCEAFSQHLGEYENVLAA [Y10A] | 4.25
52 | NLDTEELCEQFSQHLGEYENVLAA [Y10Q] | 4.67
53 | NLDTEELCESFSQHLGEYENVLAA [Y10S] | 5.13
54 | NLDTEELCEWFSQHLGEYENVLAA [Y10W] | 2.22
55 | NLDTEELCEEFSQHLGEYENVLAA [Y10E] | 4.69
56 | NLDTEELLEYFSQHLGEYENVLAA [C8L] | 2.86
57 | NLDTEELEEYFSQHLGEYENVLAA [C8E] | 4.36
58 | NLDTEELYEYFSQHLGEYENVLAA [C8Y] | 3.46
59 | NLDTEELKEYFSQHLGEYENVLAA [C8K] | 3.9
60 | NLDTEELHEYFSQHLGEYENVLAA [C8H] | 4.07
61 | NLDTEELMEYFSQHLGEYENVLAA [C8M] | 3.41
62 | NLDTEELFEYFSQHLGEYENVLAA [C8F] | 3.26
63 | NLDTEELCEYFNQHLGEYENVLAA [S12N] | 3.07
64 | NLDTEELCEYFRQHLGEYENVLAA [S12R] | 2
65 | NLDTEELCEYFKQHLGEYENVLAA [S12K] | 2.09
66 | NLDTEELCEYFLQHLGEYENVLAA [S12L] | 1.92
67 | NLDTEELCEYFCQHLGEYENVLAA [S12C] | 2.53
68 | NLDTEELCEYFIQHLGEYENVLAA [S12I] | 2.68
69 | NLDTEELCEYFYQHLGEYENVLAA [S12Y] | 2.91
70 | NLDTEELCEYFMQHLGEYENVLAA [S12M] | 1.98
71 | NLDTEQLCEYFSQHLGEYENVLAA [E6Q] | 1.64
72 | NLDTEHLCEYFSQHLGEYENVLAA [E6H] | 2

Row | Variant | protein stability index
73 | NLDTEPLCEYFSQHLGEYENVLAA [E6P] | 3.82
74 | NLDTEMLCEYFSQHLGEYENVLAA [E6M] | 1.71
75 | NLDTEYLCEYFSQHLGEYENVLAA [E6Y] | 2.46
76 | NLDTEILCEYFSQHLGEYENVLAA [E6I] | 2.13
77 | NLDTEELCEYFSQHLGTYENVLAA [E17T] | 2.51
78 | NLDTEELCEYFSQHLGVYENVLAA [E17V] | 2.33
79 | NLDTEELCEYFSQHLGCYENVLAA [E17C] | 2.31
80 | NLDTEELCEYFSQHLGQYENVLAA [E17Q] | 1.66
81 | NLDTEELCEYFSQHLGDYENVLAA [E17D] | 2.88
82 | NLDTEELCEYFSQHLGPYENVLAA [E17P] | 2.64
83 | NLDTEELCEYFSQHLGSYENVLAA [E17S] | 2.99
84 | NCDTEELCEYFSQHLGEYENVLAA [L2C] | 2.25
85 | NSDTEELCEYFSQHLGEYENVLAA [L2S] | 4.11
86 | NVDTEELCEYFSQHLGEYENVLAA [L2V] | 1.79
87 | NDDTEELCEYFSQHLGEYENVLAA [L2D] | 4.72
88 | NIDTEELCEYFSQHLGEYENVLAA [L2I] | 2.23
89 | NMDTEELCEYFSQHLGEYENVLAA [L2M] | 3.46
90 | NYDTEELCEYFSQHLGEYENVLAA [L2Y] | 2.78
91 | NWDTEELCEYFSQHLGEYENVLAA [L2W] | 2.21
92 | NFDTEELCEYFSQHLGEYENVLAA [L2F] | 3.05
93 | NPDTEELCEYFSQHLGEYENVLAA [L2P] | 1.8
94 | NNDTEELCEYFSQHLGEYENVLAA [L2N] | 3.72
